The chains are these.
B1: Clone 26 (VH4Vκ1), humanised variant of clone #28, human IgG1 (antibody, V domains shown)
VH: QVQLQESGPGLVKPSETLSLTCTVSGFSLNNYDMSWVRQAPGKGLEWIGTVSTTYRRYYASWAKGRFTISKDTSSTTVDLQMTSLTAEDTATYFCAASGIWGRGTLVTVSS
VL: AQVLTQSTSPLSASVGDRVTITCQSSQRVYSNYLAWYQQKPGQPPKRLIFLASTLESGVPSRFSGSGSGTEFTLTISSLQCDDFATYYCAGTYTGSIWAFGGGTEVVIK
notes: also called VH4VK1
B2: Clone 15 (VH1Vκ2), humanised variant of clone #28, human IgG1 (antibody, V domains shown)
VH: QSLQESGGGLVKPSETLSLTCTVSGFSLNNYDMSWVRQAPGKGLEWIGTVSTTYRRYYASWAKGRFTISKTSSTTVDLKMTSLTAEDTATYFCAASGIWGRGTLVTVSS
VL: B1 VL with T8P, P10T, C81P, E105K, V107E
notes: also called VH1VK2
B3: Clone 23 (VH3Vκ2), humanised variant of clone #28, human IgG1 (antibody, V domains shown)
VH: QVQLQESGPGLVKPSETLSLTCTVSGFSLNNYDMSWVRQAPGKGLEWIGTVSTTYRRYYASWAKGRFTISKTSSTTVDLQMTSLTAEDTATYFCAASGIWGRGTLVTVSS
VL: B1 VL with T8P, P10T, C81P, E105K, V107E
notes: also called VH3VK2
B4: Clone 22 (VH3Vκ1), humanised variant of clone #28, human IgG1 (antibody, V domains shown)
VH: B3 VH
VL: B1 VL
notes: also called VH3VK1
B5: Clone 16 (VH1Vκ4), humanised variant of clone #28, human IgG1 (antibody, V domains shown)
VH: B2 VH
VL: B1 VL with A1D, Q2I, V3Q, L4M, T8P, P10T, C81P, E105K, V107E
notes: also called VH1VK4
B6: Clone 29 (VH4Vκ5), humanised variant of clone #28, human IgG1 (antibody, V domains shown)
VH: B1 VH
VL: DIQMTQSPSTLSASVGDRVTITCQSSQRVSSSYLAWYQQKPGQPPKRLIFLASTLESGVPSRFSGSGSGTEFTLTISSLQPDDFATYYCAGTYTGSIWAFGGGTKVEIK
notes: also called VH4VK5
B7: Clone 33 (VH5Vκ5), humanised variant of clone #28, human IgG1 (antibody, V domains shown)
VH: B1 VH with K71R, T73N, S75K, T76N, V78L
VL: B6 VL
notes: also called VH5VK5
B8: Clone 36 (VH6Vκ4), humanised variant of clone #28, human IgG1 (antibody, V domains shown)
VH: B1 VH with S61D, W62S, A63V, K71R, T73N, S75K, T76N, V78L
VL: B6 VL with S30Y, S32N
notes: also called VH6VK4
B9: Clone 37 (VH6Vκ5), humanised variant of clone #28, human IgG1 (antibody, V domains shown)
VH: B1 VH with S61D, W62S, A63V, K71R, T73N, S75K, T76N, V78L
VL: B6 VL
notes: also called VH6VK5
B10: Clone 34 (VH6Vκ1), humanised variant of clone #28, human IgG1 (antibody, V domains shown)
VH: B1 VH with S61D, W62S, A63V, K71R, T73N, S75K, T76N, V78L
VL: B1 VL
notes: also called VH6VK1
B11: Clone 25 (VH3Vκ5), humanised variant of clone #28, human IgG1 (antibody, V domains shown)
VH: B3 VH
VL: B6 VL
notes: also called VH3VK5
B12: Clone 17 (VH1Vκ5), humanised variant of clone #28, human IgG1 (antibody, V domains shown)
VH: B2 VH
VL: B6 VL
notes: also called VH1VK5
B13: Clone 19 (VH2Vκ2), humanised variant of clone #28, human IgG1 (antibody, V domains shown)
VH: B2 VH with G8P, K79Q
VL: B1 VL with T8P, P10T, C81P, E105K, V107E
notes: also called VH2VK2
B14: Clone 20 (VH2Vκ4), humanised variant of clone #28, human IgG1 (antibody, V domains shown)
VH: B2 VH with G8P, K79Q
VL: B6 VL with S30Y, S32N
notes: also called VH2VK4
B15: Clone 35 (VH6Vκ2), humanised variant of clone #28, human IgG1 (antibody, V domains shown)
VH: B1 VH with S61D, W62S, A63V, K71R, T73N, S75K, T76N, V78L
VL: B1 VL with T8P, P10T, C81P, E105K, V107E
notes: also called VH6VK2
B16: Clone 14 (VH1Vκ1), humanised variant of clone #28, human IgG1 (antibody, V domains shown)
VH: B2 VH
VL: B1 VL
notes: also called VH1VK1
B17: Clone 18 (VH2Vκ1), humanised variant of clone #28, human IgG1 (antibody, V domains shown)
VH: B2 VH with G8P, K79Q
VL: B1 VL
notes: also called VH2VK1
B18: Clone 30 (VH5Vκ1), humanised variant of clone #28, human IgG1 (antibody, V domains shown)
VH: B1 VH with K71R, T73N, S75K, T76N, V78L
VL: B1 VL
notes: also called VH5VK1

The Kd is the equilibrium constant for the complex coming apart. The term koff denotes the rate constant with which the complex falls apart. By kon is commonly meant a measure of how fast the partners come together.

Residue numbers refer to the chain shown, from its start.

One assay deals with T1, full length recombinant human 2N4R tau (amino acids 1-441) (human, UniProt P10636 1-758).
T1 construct: Bought (rPeptide); recombinant, non-phosphorylated; also called recombinant tau
T1 sequence (P10636 other isoform, or with tags, fused parts or gaps limits assumed): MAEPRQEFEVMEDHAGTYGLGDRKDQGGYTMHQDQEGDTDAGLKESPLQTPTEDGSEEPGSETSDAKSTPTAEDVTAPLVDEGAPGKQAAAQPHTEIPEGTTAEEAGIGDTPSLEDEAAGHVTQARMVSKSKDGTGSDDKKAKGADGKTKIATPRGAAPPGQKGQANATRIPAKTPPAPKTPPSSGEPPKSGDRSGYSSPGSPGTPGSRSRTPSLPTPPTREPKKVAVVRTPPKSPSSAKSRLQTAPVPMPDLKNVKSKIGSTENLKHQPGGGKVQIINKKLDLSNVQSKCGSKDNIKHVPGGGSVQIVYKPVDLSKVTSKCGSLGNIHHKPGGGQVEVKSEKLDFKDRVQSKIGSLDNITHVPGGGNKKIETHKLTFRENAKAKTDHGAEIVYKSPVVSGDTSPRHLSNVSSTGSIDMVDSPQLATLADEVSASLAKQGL
Put plainly: SPR Biacore SCK, IgG on Protein A, tau analyte. Here is the method: 23.5 Assessment of antibody binding to tau (Biacore SCK analysis): Binding of anti-tau hIgG1 to full length recombinant 2N4R tau (Rpeptide; SEQ ID NO: 2) was assessed using the Biacore T200 (GE Healthcare, Chicago, Ill., USA) running Biacore T200 Evaluation Software V2.0.1. hIgG1 were immobilised on a Protein A capture sensor chip in running buffer (HBS-EP+ buffer containing 1 mg/mL BSA) at 25° C. captured to ˜50 RU at 10 μL/min. For single-cycle kinetics experiments, recombinant 2N4R tau was flowed at concentrations ranging from 5 nM to 40 nM (2-fold dilutions) with an association time of 150 s and a dissociation time of 200 s. Curves were compared to a reference cell that was mock immobilized (no antibody present).
Data were analysed using Langmuir (1:1) binding analysis, describing a 1:1 interaction at the surface: […]
On the technique in general: Surface plasmon resonance follows binding to a sensor surface in real time, without labels.
Consider B1, for which the Kd worked out at 57.6 nM, the “Relative KD” value worked out at 1.27 fold vs VH0VK0, the koff came to 0.00336 s⁻¹ and the kon worked out at 58300 M⁻¹ s⁻¹.

As to B2, the Kd is 44.1 nM, the “Relative KD” value is 0.97 fold vs VH0VK0, the koff was 0.00294 s⁻¹ and the kon came to 66800 M⁻¹ s⁻¹.

As for B3, the Kd is 51.3 nM, the “Relative KD” value was 1.13 fold vs VH0VK0, the koff came out at 0.00253 s⁻¹ and the kon was found to be 49400 M⁻¹ s⁻¹.

Regarding B4, the dissociation constant (Kd) is 43.9 nM, the “Relative KD” value came to 0.97 fold vs VH0VK0, the koff was found to be 0.00249 s⁻¹ and the kon was found to be 56700 M⁻¹ s⁻¹.

Regarding B5, the Kd came to 31.2 nM, the “Relative KD” value was found to be 0.69 fold vs VH0VK0, the koff was found to be 0.00207 s⁻¹ and the kon is 66300 M⁻¹ s⁻¹.

Consider B6, for which the Kd was 114 nM, the “Relative KD” value worked out at 2.52 fold vs VH0VK0, the koff is 0.00409 s⁻¹ and the association rate constant (kon) is 35900 M⁻¹ s⁻¹.

Take B7: the Kd is 60.6 nM, the “Relative KD” value is 1.34 fold vs VH0VK0, the koff is 0.00354 s⁻¹ and the kon was determined as 58400 M⁻¹ s⁻¹.

As to B8, the Kd came to 123 nM, the “Relative KD” value was 2.72 fold vs VH0VK0, the koff is 0.00406 s⁻¹ and the kon stood at 33100 M⁻¹ s⁻¹.

With B9, the dissociation constant (Kd) is 123 nM, the “Relative KD” value was 2.72 fold vs VH0VK0, the koff is 0.00544 s⁻¹ and the on-rate constant (kon) stood at 44300 M⁻¹ s⁻¹.

Regarding B10, the Kd was determined as 141 nM, the “Relative KD” value came to 3.11 fold vs VH0VK0, the koff was determined as 0.00525 s⁻¹ and the kon amounted to 37300 M⁻¹ s⁻¹.

Consider B11, for which the dissociation constant Kd was determined as 38.9 nM, the “Relative KD” value was found to be 0.86 fold vs VH0VK0, the koff was found to be 0.00316 s⁻¹ and the kon turned out to be 81300 M⁻¹ s⁻¹.

For B12, the Kd is 41.1 nM, the “Relative KD” value turned out to be 0.91 fold vs VH0VK0, the koff was 0.00428 s⁻¹ and the kon was 104000 M⁻¹ s⁻¹.

With B13, the Kd stood at 67.3 nM, the “Relative KD” value is 1.49 fold vs VH0VK0, the koff came out at 0.00324 s⁻¹ and the kon is 48100 M⁻¹ s⁻¹.

Regarding B14, the Kd was determined as 38 nM, the “Relative KD” value was 0.84 fold vs VH0VK0, the dissociation rate constant (koff) worked out at 0.00234 s⁻¹ and the kon came to 61500 M⁻¹ s⁻¹.

B15: the Kd was 222 nM, the “Relative KD” value is 4.9 fold vs VH0VK0, the koff stood at 0.00533 s⁻¹ and the kon amounted to 24000 M⁻¹ s⁻¹.

As to B16, the Kd amounted to 36.6 nM, the “Relative KD” value was 0.81 fold vs VH0VK0, the koff was 0.00308 s⁻¹ and the association rate constant (kon) worked out at 84000 M⁻¹ s⁻¹.

B17: the Kd turned out to be 49.2 nM, the “Relative KD” value was found to be 1.09 fold vs VH0VK0, the off-rate (koff) worked out at 0.0033 s⁻¹ and the kon stood at 67100 M⁻¹ s⁻¹.

On to B18, for which the Kd came to 75.7 nM, the “Relative KD” value was 1.67 fold vs VH0VK0, the off-rate constant (koff) was found to be 0.00351 s⁻¹ and the kon is 46300 M⁻¹ s⁻¹.

The target in a further assay is T2, Bovine serum albumin (bovine, UniProt P02769 25-607).
T2 construct: Negative control antigen in ELISA; also called BSA
T2 sequence (P02769 25-607 limits assumed): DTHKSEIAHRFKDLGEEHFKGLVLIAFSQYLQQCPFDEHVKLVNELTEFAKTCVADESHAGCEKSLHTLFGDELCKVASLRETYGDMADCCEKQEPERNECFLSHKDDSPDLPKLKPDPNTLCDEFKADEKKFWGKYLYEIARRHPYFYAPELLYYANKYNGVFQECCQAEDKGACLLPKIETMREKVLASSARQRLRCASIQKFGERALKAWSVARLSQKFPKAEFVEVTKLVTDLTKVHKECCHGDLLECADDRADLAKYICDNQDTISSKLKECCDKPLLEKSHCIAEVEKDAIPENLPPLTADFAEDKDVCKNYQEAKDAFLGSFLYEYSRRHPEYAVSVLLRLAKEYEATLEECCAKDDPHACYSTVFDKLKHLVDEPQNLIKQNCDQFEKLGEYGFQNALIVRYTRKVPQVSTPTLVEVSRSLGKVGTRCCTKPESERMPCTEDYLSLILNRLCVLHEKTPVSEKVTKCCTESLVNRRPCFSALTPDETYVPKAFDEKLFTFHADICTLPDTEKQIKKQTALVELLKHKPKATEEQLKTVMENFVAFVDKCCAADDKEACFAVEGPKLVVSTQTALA
Put plainly: ELISA on 1% BSA, HEK supernatant, anti-human IgG-HRP, n=1. The procedure: Antigen was removed from wells and the plates were then blocked for 1 hour at RT with 5% dried milk in 1×TBS. Blocking solution was removed, HEK293 cell supernatant (1:100 in 1% BSA/1×TBS) was added to relevant wells, and plates were incubated for 1 hour at RT with gentle shaking. Plates were then washed four times with TBS/0.1% Tween (TBST). Goat-anti-human IgG-HRP antibody (ThermoFisher Scientific, Waltham, Mass. USA), diluted 1:2000 in 5% milk/TBS, was added to each well and plates were incubated for 1 hour at RT with gentle shaking before being washed four times with TBST. 3,3′,5,5′-tetramethylbenzidine (TMB) ELISA solution was added to each well and plates were incubated for 15 mins at RT. An equal volume of 1 M sulfuric acid was added to each well and OD was measured at 450 nm.
In general terms: An ELISA detects its analyte on a solid surface through an enzyme-linked reagent.
Consider B1, for which the binding result is “no binding (tested: supernatant 1:100)”.

For B2, the binding result is reported as “no binding (tested: supernatant 1:100)”.

As to B3, the binding result was “no binding (tested: supernatant 1:100)”.

On to B4, for which the binding result is “no binding (tested: supernatant 1:100)”.

In the case of B5, the binding result is “no binding (tested: supernatant 1:100)”.

For B6, the binding result is listed as “no binding (tested: supernatant 1:100)”.

With B7, the binding result was “no binding (tested: supernatant 1:100)”.

With B8, the binding result is recorded as “no binding (tested: supernatant 1:100)”.

In the case of B9, the binding result is “no binding (tested: supernatant 1:100)”.

Take B10: the binding result is “no binding (tested: supernatant 1:100)”.

Consider B11, for which the binding result is “no binding (tested: supernatant 1:100)”.

Take B12: the binding result is listed as “no binding (tested: supernatant 1:100)”.

As for B13, the binding result is “no binding (tested: supernatant 1:100)”.

Consider B14, for which the binding result is “no binding (tested: supernatant 1:100)”.

For B15, the binding result was “no binding (tested: supernatant 1:100)”.

For the molecule B16, the binding result is listed as “no binding (tested: supernatant 1:100)”.

In the case of B17, the binding result is recorded as “no binding (tested: supernatant 1:100)”.

With B18, the binding result was “no binding (tested: supernatant 1:100)”.

(Values after US20220265819A1 (GEN2 NEUROSCIENCE, published 2022).)
